This passage reports amyloid nucleation score results from the supplement of paper PMC12042874.

± gives the uncertainty stated by the source.

The series can be described thus: amyloid nucleation score (Sup35N fusion, yeast selection) (log enrichment); library NNK3; higher = more nucleation; inactive = no reads after selection. Put shortly:
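Sup35N fusions to peptides of 20 random codons were expressed in psi-negative yeast, induced 24 hours with 100 μM copper sulfate, and grown 7 days at 30°C on medium lacking adenine and uracil. Input and output plasmid inserts were sequenced by Illumina. The nucleation score is the DiMSum log enrichment of output over input reads, centred on the mode score of non-aggregating sequences. Sequences with under 100 input reads were excluded.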
Regarding LVRIMYL, the amyloid nucleation score result was “inactive”.
As for LVRKAAVPN, the entry is “inactive”; as for LVRSNGC, “inactive”.
As for LVSERKAKNSRSGSLAFFRR, the entry is “inactive”; as for LVSLLVWPYLAWCQGCYSVE, “inactive”.
As for LVVLLRFCGRAPGIGQSMGD, the entry is “inactive”.
With LVVRLIDF, the amyloid nucleation score entry was “inactive”.
As for LVVYYYLCACNYGARRFSWC, the figure is 1.15 ± 0.13; as for LVYLAF, “inactive”.
On to LWDDMVIMFGPVICYGMASG, for which the amyloid nucleation score result is “inactive”.
As for LWIDLWFILYWPGSIDCGEC, the figure is -0.288 ± 0.45; as for LWKMILGTFMTQMCL, “inactive”; as for LWLTLGDGIEGVYPRVGVKL, “inactive”.
As for LWPIGIFKKCYVDRICYYCV, the entry is “inactive”; as for LWRDSGTITDGFECFSME, “inactive”; as for LWRGLVIWLMLSGLKCGLHL, “inactive”.
As for LWVRIKARTFNFS, the figure is 0.228 ± 0.19; as for LWWISWRRGSQSMVVSG, “inactive”.
LYAYVQVIGDQA: the amyloid nucleation score entry is “inactive”.
As for LYGVNSCLIH, the entry is “inactive”; as for LYISNFANEINA, “inactive”.
As for LYIWSIGLLEQLGNGMQASR, the entry is “inactive”; as for LYKGSHWDQAFLSVWYLGVL, “inactive”.
As for LYLLSKRFHNLYLLDKVLKY, the entry is “inactive”; as for LYLVGIMYASTQYTWRQLIN, “inactive”.
For the substance LYMDYLQNVNLYGMFI, the amyloid nucleation score entry was “inactive”.
As for LYNILFWTPNFRFVSWYHCI, the entry is “inactive”.
As for LYNRQVGKDANSFLYNRASQ, the entry is “inactive”; as for LYRSMH, “inactive”; as for LYSHSGSFSIGSQFNFVWFT, 1.44 ± 0.14.
LYSKCFGVRLHYVFSMSWSG: the amyloid nucleation score result was “inactive”.
As for MAEWENRLARYSGICGSSLP, the entry is “inactive”; as for MAFGWWLDSMLYFITDALVP, “inactive”; as for MAINYTFFPPRLVT, “inactive”.
As for MAKTMM, the entry is “inactive”; as for MAKVLHNWFFDRYRFVMFIG, “inactive”; as for MCKGR, “inactive”.
With MCKRGRDCGLLFVSTDDLGD, the amyloid nucleation score result was “inactive”.
As for MCLYQGESRYGSYLYFTDIN, the entry is “inactive”; as for MCRMRSW, “inactive”.
As for MCVWVWI, the figure is 2.06 ± 0.092; as for MDLCMETGQYSLRNTVCAFL, “inactive”.
As for MDLYMTSWEFTVLSLEKMGR, the amyloid nucleation score result is “inactive”.
For the substance MDSCFRYVTYVTVLGLK, the amyloid nucleation score result was “inactive”.
As for MDVYLRCSGYILTPKMAWSQ, the entry is “inactive”; as for MECELHTDGRSVACRHT, “inactive”.
As for MELCTLMCHYVVYSVVNWTY, the entry is “inactive”.
As for MEMLVVIRIARRMYDGGCLS, the amyloid nucleation score was -0.423 ± 0.45.
MFCSIIKSQTVAFLVGSSFG showed an amyloid nucleation score of 0.145 ± 0.26.
As for MFDLYN, the entry is “inactive”.
As for MFGFRNITK, the figure is 0.583 ± 0.2; as for MFLKMRWSNAVRMARKCNLE, “inactive”; as for MFTGGMFRKVTIQIL, “inactive”.
As for MGEMRMLVTVT, the entry is “inactive”; as for MGFVHINGQCTQLLCCSRLK, 1.94 ± 0.072.
In the case of MGHDHHWSGSDMGS, the amyloid nucleation score entry was “inactive”.
As for MGKVARRA, the entry is “inactive”; as for MGLIERLWWSTPIKF, “inactive”.
On to MGMEIEQYNFTALLRD, for which the amyloid nucleation score result is “inactive”.
As for MGRISVLPYLKFSYAIWY, the entry is “inactive”; as for MGSGGYNIITDGQSFFSTMA, “inactive”.
As for MGVSWIII, the entry is “inactive”; as for MHPKSNGTFMFKMAN, “inactive”.
As for MHSISV, the entry is “inactive”.
On to MHTFSDQSISVEQRTCLQVR, for which the amyloid nucleation score entry is “inactive”.
As for MICESFVSLLLVKCELLGTA, the entry is “inactive”; as for MICHDLRSFIM, “inactive”; as for MIDRRMSFRQGDHKDCPTAH, “inactive”.
As for MIIRGKPVIWMECLAVRTDR, the entry is “inactive”.
As for MIKVLCTLFIDWAVAYVICH, the entry is “inactive”; as for MILTKSNSEVFEVGNKKLRV, “inactive”.
Consider MIRWAYLCM, for which the amyloid nucleation score entry is “inactive”.
Take MIYSTRSVFDFCGTFNTVVY: the amyloid nucleation score result is “inactive”.
As for MKCFSVSVLCNLGSFLCEVT, the figure is 0.146 ± 0.9.
On to MKGVLAKNGYIDGVLGNTAM, for which the amyloid nucleation score result is “inactive”.
As for MKLCNVRGIKVFAFCSGSRR, the figure is 1.3 ± 0.1.
As for MKQSDLGLKGRCDNCQFGRS, the figure is 0.092 ± 0.96; as for MKRGWFELMIHWDYI, “inactive”.
In the case of MLAVRMVDTPSSCQRIKPDN, the amyloid nucleation score entry was “inactive”.
As for MLEEGVHINSGLMIVWYIIM, the entry is “inactive”; as for MLFYCN, “inactive”.
As for MLIRYAVLALCSCGTNFTDL, the entry is “inactive”; as for MLLSSVPDCFSWMGLRFCGD, “inactive”; as for MLLVLR, 0.972 ± 0.1.
As for MLMVLRGRSRDNNVQSLLFA, the figure is -0.292 ± 1.2.
Take MLWRTDHMYY: the amyloid nucleation score entry is “inactive”.
As for MMCPLKLWYHVWFSGYTL, the entry is “inactive”.
As for MMLYALDRVAVTLGKSMLPA, the entry is “inactive”; as for MMMCG, “inactive”; as for MMPIRKKMNHRVTWEILWQR, “inactive”.
Consider MMRWIDVGYLVDLYSLRISG, for which the amyloid nucleation score entry is “inactive”.
As for MMVVNRGDHQDGGEAYEVV, the amyloid nucleation score result was “inactive”.
As for MNKFLSVAIQGIYVERNAHV, the figure is 1.34 ± 0.11; as for MNLYVSSLIGISARMWDWFS, 0.289 ± 0.25; as for MNTRAVSVEFRYCARYFCHA, 0.142 ± 0.93.
As for MPFGYICWIGVCFSHD, the figure is 1.96 ± 0.081; as for MPFIPHLDGS, “inactive”.
As for MPKAGVSTVSLSHRKVLTLP, the figure is 0.174 ± 1.
